The numbers were not newly measured in paper PMC11276120, which cites them from elsewhere.

One series concerns the target PCNA (Homo sapiens) (UniProt P12004).
Series [1] concerns the target PCNA (Saccharomyces cerevisiae) (UniProt P15873). The series is described as follows: NMR.

Chain of PCNA (Saccharomyces cerevisiae) (P15873 whole entry): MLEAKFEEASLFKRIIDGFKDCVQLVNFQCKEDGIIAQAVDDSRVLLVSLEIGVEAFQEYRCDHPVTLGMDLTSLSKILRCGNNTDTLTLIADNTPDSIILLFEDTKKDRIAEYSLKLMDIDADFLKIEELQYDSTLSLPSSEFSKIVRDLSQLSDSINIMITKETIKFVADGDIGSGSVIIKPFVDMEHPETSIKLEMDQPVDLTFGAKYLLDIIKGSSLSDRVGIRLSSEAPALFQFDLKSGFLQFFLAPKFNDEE
Chain of p21WAF1/CIP1 PIP-box (P38936 139-160): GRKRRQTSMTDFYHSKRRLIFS
Chain of PCNA (Homo sapiens) (P12004 whole entry): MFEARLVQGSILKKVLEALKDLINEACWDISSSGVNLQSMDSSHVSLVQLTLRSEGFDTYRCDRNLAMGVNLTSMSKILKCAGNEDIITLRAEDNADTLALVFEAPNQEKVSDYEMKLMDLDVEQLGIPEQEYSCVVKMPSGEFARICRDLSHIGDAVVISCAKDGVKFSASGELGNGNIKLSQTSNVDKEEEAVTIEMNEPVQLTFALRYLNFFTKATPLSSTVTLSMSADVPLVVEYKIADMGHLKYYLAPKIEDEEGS
Chain of Rev1 BRCT (P12689 158-252): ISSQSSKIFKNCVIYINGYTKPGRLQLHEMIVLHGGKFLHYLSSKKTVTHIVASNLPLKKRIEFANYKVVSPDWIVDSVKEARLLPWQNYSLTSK

The term Kd denotes the free concentration of one partner at which half of the binding sites on the other are occupied at equilibrium, for simple one-to-one binding. As for “p21WAF1/CIP1 PIP-box (from UniProt P38936)”, in the series with PCNA (Homo sapiens), the Kd was 0.08 µM. Turning to Rev1 BRCT (from UniProt P12689), in series [1], the Kd was 79 µM.
